B1: 2F8-HG-F273L (antibody, part only; not given: anti-EGFr VH and light chain, part only)
heavy, part: ASTKGPSVFPLAPCSRSTSESTAALGCLVKDYFPEPVTVSWNSGALTSGVHTFPAVLQSSGLYSLSSVVTVPSSSLGTKTYTCNVDHKPSNTKVDKRVAPEFLGGPSVFLFPPKPKDTLMISRTPEVTCVVVDVSQEDPEVQFNWYVDGVEVHNAKTKPREEQFNSTYRVVSVLTVLHQDWLNGKEYKCKVSNKGLPSSIEKTISKAKGQPREPQVYTLPPSQEEMTKNQVSLTCLVKGFYPSDIAVEWESNGQPENNYKTTPPVLDSDGSFLLYSRLTVDKSRWQEGNVFSCSVMHEALHNHYTQKSLSLSLGK
B2: 2F8-HG-F273A (antibody, part only; not given: anti-EGFr VH and light chain, part only)
heavy, part: ASTKGPSVFPLAPCSRSTSESTAALGCLVKDYFPEPVTVSWNSGALTSGVHTFPAVLQSSGLYSLSSVVTVPSSSLGTKTYTCNVDHKPSNTKVDKRVAPEFLGGPSVFLFPPKPKDTLMISRTPEVTCVVVDVSQEDPEVQFNWYVDGVEVHNAKTKPREEQFNSTYRVVSVLTVLHQDWLNGKEYKCKVSNKGLPSSIEKTISKAKGQPREPQVYTLPPSQEEMTKNQVSLTCLVKGFYPSDIAVEWESNGQPENNYKTTPPVLDSDGSFALYSRLTVDKSRWQEGNVFSCSVMHEALHNHYTQKSLSLSLGK

Key:
2F8-HG-L236V = assay: non-covalent nano-ESI MS, 0.01-10 uM; self-dimerisation (FIG. 6)
EGFr in A431 cells = EGFr in A431 cells (UniProt P00533)
purified EGFr (Sigma) = purified EGFr (Sigma) (UniProt P00533); assay: ELISA on coated purified EGFr (50 ng/well), without and with polyclonal human IgG (IVIG), both curves in the same bundle
2F8-HG-Y275A = assay: non-covalent nano-ESI MS, 0.01-10 uM; self-dimerisation (FIG. 6)
2F8-HG-F273A = assay: as above

Molecule	EC50 (read off the curve) (purified EGFr (Sigma)) [ng/mL]	other results
2F8-HG-L236V (antibody)		percent monomeric at low concentrations (2F8-HG-L236V): 100%
2F8-HG-R277A (antibody)	80	IC50 (read off the curve) (EGFr in A431 cells): 3 nM
2F8-HG-R277K (antibody)	80	
2F8-HG-Y275A (antibody)		percent monomeric at low concentrations (2F8-HG-Y275A): 100%
B1	80	
B2	80	percent monomeric at low concentrations (2F8-HG-F273A): 100%
